Substrate in this data set: CCCC(=O)Oc1ccc([N+](=O)[O-])cc1
The data set can be described thus: spectrophotometric p-nitrophenol release. The data set is classed as biochemical, Beauveria bassiana. The settings on record: 25 mM phosphate buffer pH 6.0, 50°C, 2 min, free enzyme, 0.05% Triton X-100 in the general assay, Hill coefficient n printed 1.46. The source says: spectrophotometric p-nitrophenol release on BbLA (Beauveria bassiana lipase A)

Results on one protein are retold here after article PMC4595793, “Beauveria bassiana Lipase A expressed in Komagataella (Pichia) pastoris with potential for biodiesel catalysis” (Frontiers in Microbiology, 2015).

The term Km denotes the substrate concentration at which the rate is half of its maximum.

B1: BbLA (Beauveria bassiana lipase A) (Beauveria bassiana ARSEF 2860) (protein)
chain: LSADIDGAPLIHLDYATYRGSRVAGAGVDQFLGMRFAKPPLGDLRFRAPEEPFHEDQVQDATKLGALCVGTVDGSGVSPNDVFGEDCLFANLFKPANATTASKLPVWVFIQGGGYAHNSNGNYNGTQIVQQSGGNVVFVSFNYRVGVLGFLASEEVRKDGALNAGLLDQRLFLKWVQKYIGQFGGDPNHVVIHGDSAGGGSVSHHLTAYGGNDKENLFVGGIPESPFWPTQRKVDQMEFQYTRLLRDTKCDSLDCLRKLDVGALGNASQPSPFPEAHTEDPAPLWYWLPVIDGDLVQDNMYKQFLTGRFKRVPLLVGADTDEGTLFAVNASTETEVSSFLRANYPRLQEWQLDIVSTIYPKMKPLPKHAAYFPSAAAVYGDSTFVCAGNTMSDAISAFVGPDKLWNYRYNVADPEQVAEGFGVPHVSELGAIFGPDNIRGHEAKSLRTTNAPIVPVTMAYFTSFVRFLDPNTSRQPGSPLWQNWGAFVGEQGQRMRLETNNTAMETVPFDLVTKCALWKLLAESMDV
notes: 19-residue signal peptide removed (precursor 546 aa, 1,641 bp); alpha-factor secretion signal, C-terminal 6His (554 aa printed; b43 says N-terminal His); secreted by Komagataella pastoris GS115, N-glycosylated, about 78 kDa (60 kDa after EndoHf); Octyl-sepharose purified
B1: the Km was found to be 0.5546 µM.
